Laboratory results from the nanobody polyreactivity screen of Harvey et al. (2022).

test: yeast display, Sf9 membrane polyspecificity reagent, FACS + sequencing; frameworks hold sequencing errors
How it was run: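 In a synthetic yeast display library (Saccharomyces cerevisiae BJ5465), nanobody expression was induced with galactose for 36–48 hours. FACS gates were set low and high (top ~1%) using anti-HA fluorescence for expression and streptavidin fluorescence for binding of the Sf9 membrane reagent. Each polyreactivity label is drawn from the gate of origin.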

Sequence	polyreactivity (PSR sort gate)
QVQLVESGGGLVQAGGSLRLSCAASGRIFNSYAMGWYRQAPGKERELVAAISSGGSTYYADSVKGRFTFSRDNAKNTVYLQMNSLKPEDTAVYYCADRIWTGRGRKLGYGYDYWGQGTQVTVSS	low polyreactivity
QVQLVESGGGLVQAGGSLRLSCAASGRIFNVNALGWYRQAPGKERELVAAINWSGGRTYYADSVKGRFTISRDNAKNTVYLQLNSLKPEDTAVYYCAADTRYPYRAYDYWGQGTQVTVAS	high polyreactivity
QVQLVESGGGLVQAGGSLRLSCAASGRIFNVYAMGWYRQAPGKERELVASITSAGSTYYADSVKGRFTISRDNAKITVYLQMNSLKPEDTAVYYCAADSYSVYYYTYDSWGQGTQVTVSS	low polyreactivity
QVQLVESGGGLVQAGGSLRLSCAASGRIFNVYAMGWYRQAPGKERELVASITSAGSTYYADSVKGRFTISRDNAKNTVYLQMNSLKPEDTPVYDCAADSYSVYYYTYDSWGQGTQVTVSS	low polyreactivity
QVQLVESGGGLVQAGGSLRLSCAASGRIFNYNAMGWYRQAPGKEREFVATISGRAGRTYYADSVKGRFTISRDNAKNTVYLQMNSLKPEDTAVYYCNAGQWRYPGLYYYWGQGTQVTVSS	high polyreactivity
QVQLVESGGGLVQAGGSLRLSCAASGRIFNYYAMGWYRQAPGKERELVAAINSGGSTYADSVKGRFTISRDNAKNTVYLQMNSLKPEDTAVYYSAKDGQLQSGRERPSGYDHWGQGTQVTVSS	low polyreactivity
QVQLVESGGGLVQAGGSLRLSCAASGRIFPDNTLGWYRQAPGKERELVAVITYSGGSTYYADSVKGRFTISRDNAKNTVYLQMNSLKPEDTAVYYCAARDYYIWFAEVDSWGQGTQVTVSS	low polyreactivity
QVQLVESGGGLVQAGGSLRLSCAASGRIFPGNAMGGYRQAPGKERELVATISRIGGSTYADSVKGRFTISRDNAKNTVYLQMNSLKPEDTAVYYCAKTWVSRDVEYDYWGQGTQVTVSS	low polyreactivity
QVQLVESGGGLVQAGGSLRLSCAASGRIFPGNAMGWYRQAPGKEREFVAAINTRGGITYYADSVKGRFTISRDNAKNTVYLQMNSLKPEDTAVYYCARTYYPVDGEYDYWGQGTQVTVSS	low polyreactivity
QVQLVESGGGLVQAGGSLRLSCAASGRIFPGYAMGWYRQAPGKERELVAAISGSGVRTYYADSVKGRFTISRDNAKNTFYLQMNSLKPEDTAVYYCAADSKIRTKLDYWGQGTQVTVSS	low polyreactivity
QVQLVESGGGLVQAGGSLRLSCAASGRIFPGYAMGWYRQAPGKERELVAGITWRTARTYYADSVKGRFTISRDNAKNTVYLQMNSLKPEDTAVYYCAAKYARYGRHVIFDYWGQGTQVTVSS	high polyreactivity
QVQLVESGGGLVQAGGSLRLSCAASGRIFPGYAMGWYRQAPGKERELVASIRWSGDSTYYADSVKGRFTISRDNAKNTVYLQMNSLKPEDTAVYYCNRRWYRGDYWGQGTQVTVSS	low polyreactivity
QVQLVESGGGLVQAGGSLRLSCAASGRIFPHYAMGWYRQAPGKERELVAAISRSGVSTYYADSVKGRFTISRDNAKNTVYLQMNSLKPEDTAVYYCNIVRYSFLYSVTYNYWGQGTQVTVSS	high polyreactivity
QVQLVESGGGLVQAGGSLRLSCAASGRIFPLYTMGWYRQAPGKERELVAAITSIGGSTYYADSVKGRFTISRDNAKNTVYLQMNSLKPEDTAVYYCNAQYRPLTSWYKMDYWGQGTQVTVSS	high polyreactivity
QVQLVESGGGLVQAGGSLRLSCAASGRIFPNAMGWYRQAPGKERELVAAISWSGVTTTYADSVKGRFTISRDNAKNTVYLQMNSLKPEDTAVYYCAARYWAYGYWGQGTQVTVSS	high polyreactivity
QVQLVESGGGLVQAGGSLRLSCAASGRIFPPNAMGWSRQAPGKERELVAAITRGGSTYYADSVKGRFTISRDNAKNTVYLQMNSLKPEDTAVYYCATVPWYIKVGQKRNDYWGQGTQVTVSS	high polyreactivity
